In publication PMC7511442:

Key:
[1] = target: GFP-GiKIN14a-Δtail (Giardia intestinalis); experiment: hydrodynamic analysis
[2] = target: GFP-GiKIN14a-Δtail (Giardia intestinalis); experiment: single-molecule photobleaching
[3] = target: GFP-GiKIN14a (recombinant full-length GiKIN14a with an N-terminal GFP) (Giardia intestinalis); experiment: hydrodynamic analysis

Row | stoichiometry N [3] | Substance | stoichiometry N [1] | stoichiometry N [2]
1 | – | GFP-GiKIN14a-Δtail (domain or fragment) | 2 | 2
2 | 2 | GFP-GiKIN14a (recombinant full-length GiKIN14a with an N-terminal GFP) (natural protein) | – | –
